Assay results reported in US20160031958A1, “METHODS AND COMPOSITIONS USEFUL IN MANIPULATING THE STABILITY OF RE1 SILENCING TRANSCRIPTION FACTOR” (OREGON HEALTH & SCIENCE UNIVERSITY, priority 2014, published 2016).

How the values were obtained:
endogenous REST protein = assay: Western blot of endogenous REST protein levels in transfected E12.5 neurospheres; type: cell-based; conditions: E12.5 mouse cortical neurospheres after transfection; MG132 4 h; compared to control peptides
Experimental: FIG. 7B is an image of a Western blot showing endogenous REST protein levels in E12.5 neurospheres after transfection. Lane 1, empty vector; lane 2, control (595-694) peptide; lane 3, REST(810-910) S861/864A peptide; lane 4, REST(810-910) WT peptide; lane 5, empty vector with MG132 treated for 4 h. The blot was probed with anti-mouse-REST antibody and anti-tubulin (loading control) antibodies.
There is a significant difference between REST (810-910) compared to control (595-694) peptide (n=5, p=0.0021) and REST(810-910) compared to S861/864A REST(810-910) (n=5, p=0.046). The difference between MG132 and REST(810-910) is not significant (n=5, p=0.7996, Sidak's multiple comparison test, error bars represent 95% confidence interval).
The Examples above used the REST (810-910) reporter as a surrogate substrate for signaling molecules that target S861/S864 on full-length REST. […]
Whole cell lysates were prepared and immunoprecipitated following the procedures in Ballas N et al, 2001 supra and Nesti E et al, Mol Biol Cell 15, 4073-4088 (2004); incorporated by reference herein. Western blots were performed by standard procedures using antibodies described below and analyzed using anti IgG conjugated to infrared dyes (ThermoFisher) on an Odyssey® infrared fluorescence imager (LiCor). […] Infrared fluorescence was detected on the Odyssey® imager (LiCor) in the 700 nm channel. […]

E12.5 neurospheres = assay: Neuronal differentiation of E12.5 neurospheres (MAP2 immunostaining); type: cell-based, mouse; conditions: neurospheres differentiated 10 d, versus control (595-694) peptide, p<0.0001
Description: FIG. 8A is a photomicrograph of representative immuno-labeled E12.5 neurospheres transfected with REST (810-910)- or control peptide-IRES-GFP, sorted, and then allowed to differentiate for 10 d in culture. White, DAPI nuclei; Red, MAP2 antibody.
Results are from three different transfections. Fields were selected from multiple places on the cover slip, number of cells indicated on bars (p<0.0001, unpaired t test).
Previous studies indicate that persistent REST expression in progenitors inhibits neuronal differentiation. Therefore, it was assessed whether stabilization of REST, via expression of the unmutated REST (810-910) peptide in neural progenitors, would also hinder neuronal differentiation. Mouse neurosphere cultures were immunostained for Microtubule Associated […] 2 (MAP2), a marker of mature neurons, at days 0 and 10 post-transfection. On day 0 there was negligible MAP2 signal and no significant difference between the two conditions.
HEK293T cells were transfected using Lipofectamine 2000 (Life Technologies) following the manufacturer's instructions. PC12 tet, PC12 tet-on FLAG-REST, and HEK293T cell lines were maintained as described in Ballas N et al 2001 supra. […]

neural progenitor cells = assay: Cortical neuronal migration after in utero electroporation in rat embryos; type: in vivo; conditions: cDNA electroporated in utero at E16, harvested E18, 6 embryos, 18 cortical slices
Experimental: REST protein lacking S861/864 (negative control) and wild-type REST (810-910) peptide (experimental) were expressed in the lateral ventrical of the cortex of rat embryos (E16) by injection and in utero electroporation of the respective cDNA into neural stem cells. The embryos were then allowed to gestate for 48 hours (E18) prior to harvesting. Panel 1 and 2 are representative E18 cortical brain slices expressing REST protein lacking S861/864 (negative control) and wild-type REST protein (experimental).
FIG. 11B is a plot showing that the effect of wild type REST (810-910) peptide on neuronal migration is quantitative. […] No significant difference in neural stem cell migration between the control REST protein lacking S861/864 (negative control) and the wild-type REST (810-910) peptide (experimental) in the SVZ and the intermediate zone (IZ) (Boxes 1 and 2). […] Error bars represent standard deviation, (**P<0.001, *P<0.01 unpaired t test).

B1: REST (810-910) peptide: peptide encoding amino acids 810-to-910 of REST with unmutated S861/S864, expressed from cDNA (protein)
chain: ISKKPPLRKDKKEKSNMQSERARKEQVLIEVGLVPVKDSWLLKESVSTEDLAPPAPPLPKENLREEASGDQKLLNTGEGNKEAPLQKVGAEEADESLPGLA
With B1 the “Endogenous full-length REST protein levels” value (endogenous REST protein) was “significantly stabilized endogenous full-length REST protein”, the MAP2-positive cells (E12.5 neurospheres) was “fewer MAP2-positive cells” and the “Migration of neural progenitor cells from the SVZ toward the cortical plate (CP)” value (neural progenitor cells) was “significantly less migration to the CP”.
